Experimental data taken from publication PMC4482071.

Target: Aspergillus nidulans (An) Rpf2 (Aspergillus nidulans)
Assay: SEC; size exclusion chromatography of the An Rpf2-Rrs1 complex in solution; conditions not given (preparation in ref. 22)

## Aspergillus nidulans (An) Rrs1 (natural protein)
  stoichiometry N: 1
